{"source": "patent US20160311918A1", "about": "“Anti-Ron Monoclonal Antibodies as a Cytotoxic Drug Delivery System for Targeted Cancer Therapy” (TEXAS TECH UNIVERSITY SYSTEM, priority 2013, published 2016)", "molecules": {"B1": {"name": "Zt/g4-DM1: anti-RON mouse mAb Zt/g4 conjugated to maytansinoid DM1 via non-reducible thioether linkage (SMCC), DAR about 4:1 (conjugate)", "VH": "EVQLQQSGAELVKPGASVKLSCTTSGFNIIDTYIHWVNQKPDQGLEWIGRIDPADGNRKSDPKFQVKATITVDTSSNTAYLQLSSLTSGDTAVYYCARGYGNLNAMDSWGQGTSVTVSS", "VL": "DIQMNQSPSSLSASLGDTITITCHASQNINVWLNWYQQKPGNIPKLLIYKASNLHTGVPSRFSGSGSGTGFTLTISSLQPEDIATYYCQQGQSYPLTFGGGTKLEIK"}}, "key": {"[1]": {"assay": "Stability of Zt/g4-DM1 at 37° C. by HIC (DAR)", "type": "physicochemical", "source_text": "FIGS. 1A to 1C show the generation and characterization of anti-RON ADC Zt/g4-DM1. FIG. 1A: Schematic representation of Zt/g4-DM1 structure: Zt/g4 is a mouse mAb specific to the RON sema domain (18). DM1 was conjugated to Zt/g4 by non-reducible thioether linkage (SMCC) through lysine residues in the antibody molecule. FIG. 1B: HIC analysis of the number of DM1 conjugated to Zt/g4: Individual Zt/g4-DM1s with different numbers of DM1 (0 to 8) are marked as P0 to P8. FIG. 1C: Stability of Zt/g4-DM1. Zt/g4-DM1 was kept at 37° C. for 30 days. Samples analyzed at different time-points with the average DARs were shown;\nAnalysis of Zt/g4-DM1 conjugation and its stability: The conjugation of DM1 to Zt/g4 was verified by hydrophobic interaction chromatography (HIC) using a Varian Prostar 210 Quaternary HPLC system coupled with a TSK butyl-NPR 4.6×3.5 column (Tosoh Biosciences (Prussia, Pa.) (31). The average DARs were calculated from the integrated areas of the DAR species. This method also was used to determine the stability of Zt/g4-DM1 at 37° C.\nThe stability of Zt/g4-DM1 was determined by incubating the conjugates in vitro at 37° C. for 30 days. DAR changes were measured by HIC from different time-points."}, "RON-β chain (mature RON)": {"target": "T1, RON-β chain (mature RON) (Homo sapiens, UniProt Q04912)", "T1 construct": "We selected CRC cell lines LoVo, DLD1, HT29, HCT116, and SW620 expressing variable levels of RON as the cellular model; host or cells: HCT116, HT29, SW620", "T1 sequence (Q04912 310-1400 limits assumed)": "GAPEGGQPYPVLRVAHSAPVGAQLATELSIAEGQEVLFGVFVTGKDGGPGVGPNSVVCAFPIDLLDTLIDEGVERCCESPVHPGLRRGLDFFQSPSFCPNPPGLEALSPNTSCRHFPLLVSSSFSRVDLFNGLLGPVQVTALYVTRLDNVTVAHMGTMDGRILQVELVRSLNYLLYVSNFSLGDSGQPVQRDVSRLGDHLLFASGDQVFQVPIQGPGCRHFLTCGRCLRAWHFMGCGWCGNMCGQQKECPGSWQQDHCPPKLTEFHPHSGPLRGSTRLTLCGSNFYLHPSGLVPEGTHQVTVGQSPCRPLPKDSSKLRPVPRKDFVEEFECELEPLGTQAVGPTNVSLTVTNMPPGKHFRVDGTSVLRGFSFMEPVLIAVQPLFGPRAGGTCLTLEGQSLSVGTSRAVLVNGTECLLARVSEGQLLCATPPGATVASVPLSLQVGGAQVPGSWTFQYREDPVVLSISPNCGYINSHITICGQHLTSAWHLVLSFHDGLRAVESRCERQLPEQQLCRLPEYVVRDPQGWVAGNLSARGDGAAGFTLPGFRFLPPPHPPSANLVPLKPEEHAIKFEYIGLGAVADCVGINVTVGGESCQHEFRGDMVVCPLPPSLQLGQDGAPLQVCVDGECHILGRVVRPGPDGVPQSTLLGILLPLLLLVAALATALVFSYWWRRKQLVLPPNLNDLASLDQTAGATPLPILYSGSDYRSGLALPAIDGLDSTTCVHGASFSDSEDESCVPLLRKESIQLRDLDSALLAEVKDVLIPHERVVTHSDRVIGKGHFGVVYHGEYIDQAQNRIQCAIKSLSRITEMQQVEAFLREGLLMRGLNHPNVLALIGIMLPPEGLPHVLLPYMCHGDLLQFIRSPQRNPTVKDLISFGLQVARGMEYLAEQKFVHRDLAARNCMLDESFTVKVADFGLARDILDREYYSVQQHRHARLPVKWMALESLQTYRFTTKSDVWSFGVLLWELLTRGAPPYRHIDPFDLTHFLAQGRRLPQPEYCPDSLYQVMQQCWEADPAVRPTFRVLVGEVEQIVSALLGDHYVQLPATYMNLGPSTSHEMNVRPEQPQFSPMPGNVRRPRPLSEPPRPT", "T1 sequence (Q04912 25-304 limits assumed)": "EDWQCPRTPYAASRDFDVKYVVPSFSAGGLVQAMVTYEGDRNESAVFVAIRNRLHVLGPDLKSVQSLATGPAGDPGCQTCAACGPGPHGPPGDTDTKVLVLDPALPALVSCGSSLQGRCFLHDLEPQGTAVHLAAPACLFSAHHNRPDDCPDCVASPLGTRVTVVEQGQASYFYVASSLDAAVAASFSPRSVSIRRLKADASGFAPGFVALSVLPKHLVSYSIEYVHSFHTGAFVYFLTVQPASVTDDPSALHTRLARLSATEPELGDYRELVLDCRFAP", "assay": "Western blot of RON expression in CRC cells", "type": "cell-based", "conditions": "36 h after treatment, 5 μg/ml"}, "RON": {"target": "RON (Homo sapiens, UniProt Q04912)", "sequence (Q04912 310-1400 limits assumed)": "as the sequence (Q04912 310-1400 limits assumed) above", "sequence (Q04912 25-304 limits assumed)": "as the sequence (Q04912 25-304 limits assumed) above", "assay": "Immunofluorescent localization of cytoplasmic RON in HT29 cells", "type": "cell-based", "conditions": "5 μg/ml, 6 h"}, "[2]": {"assay": "In vivo toxicity in athymic nude mice", "parameters": "species or system mouse", "description": "FIGS. 6A to 6C show the toxicity of Zt/g4-DM1 in vivo. Body weight was measured every four days during the period of Zt/g4-DM1 treatment. FIG. 6A: Effect of multiple doses of Zt/g4-DM1 on mouse body weight was determined by administration of Zt/g4-DM1 at 1, 3, 7, 10, 15 mg/kg every four day with a total of 5 injections. Mice were weighed and monitored for a total of 31 days. FIG. 6B: Effect of a single dose of Zt/g4 at 20 mg/kg on mouse body weight was determined using mice bearing HT29, HCT116, or SW620-derived tumors. Body weight was monitored up to 28 days. FIG. 6C: Effect of high doses of Zt/G4-DM1 on mouse body weight was analyzed by tail vein injection at 20, 40 and 60 mg/kg to Balb/c mice. Mice were euthanized at day 21. In all cases, the average body weight of mice before Zt/g4-DM1 injection was 19.8±3.6 grams (5 mice per group) and set as 100%;\nIn vivo toxicity studies: Acute toxicity with maximum tolerated dose was determined in Balb/C mice (four mice per dose) by a single tail vein injection of Zt/g4-DM1 at 20, 40, and 60 mg/kg body weight. Toxicity associated with different therapeutic doses was evaluated in athymic nude mice bearing HT29 tumor xenograft (five mice per dose). […] Toxicity was assessed by observing mouse behavior, weight loss, and survival.\nToxic effect of Zt/g4-DM1 on mice. Three studies using two different types of mice were performed to study Zt/g4-DM1 on animal behavior and body weight. The first study addressed the impact of multi-doses of Zt/g4-DM1. Athymic nude mice were injected five times with 1, 3, 5, 7, 10, 15 mg/kg of Zt/g4-DM1 and monitored every four days for a total period of 31 days. […] The second study observed the effect of a single dose of Zt/g4-DM1 at 20 mg/kg in nude mice bearing tumors derived from HT29, HCT116, and SW620 cells. […] The third study involved a single-dose injection of Zt/g4-DM1 at 20, 40, and 60 mg/kg in Balb/c mice monitored for 24 days (FIG. 6C). […] Also, a moderate reduction of about 6% body weight was observed within the first four days after 60 mg/kg Zt/g4-DM1 injection. […]"}, "[3]": {"system": "PDAC cell-mediated tumor growth", "assay": "Mouse xenograft PDAC model", "type": "in vivo", "conditions": "mouse PDAC xenograft models", "description": "Mouse xenograft PDAC model and anti-RON ADC treatment: Female athymic nude mice were injected with 5×106 L3.6PL, BxPC-3, or FG cells into the subcutaneous space of the right flank. Treatment began when all tumors have reached an average tumor volume of 100 to 200 mm3 The single-dose effect was studied by injection of 20 mg/kg Zt/g4-DM1. Tumor volumes were determined every four days using a previously described formula: V=pi/6×1.58×(length×width)3/2."}, "[4]": {"conditions": "five injections of 1, 3, 5, 7, 10, 15 mg/kg, 31 days"}}, "note": "“And” between values parts separate entries of the source, which are not always exact repeats. Identical values can stand only once. “Also recorded” adds a separate entry of the source.", "data": [{"molecule": "B1", "values": [{"measurement": "time stable at 37° C.", "setting": "[1]", "result": "up to 30 days"}, {"measurement": "peak 5 share of conjugates at day 30", "setting": "[1]; 25.39% at day 0", "result": 20.06, "unit": "%"}, {"measurement": "peak 4 share of conjugates at day 30", "setting": "[1]; 39.05% at day 0", "result": 32.72, "unit": "%"}, {"measurement": "reduction in DAR after 30 days", "setting": "[1]; day 30 vs day 0", "result": "6.4% and 6.5%"}, {"measurement": "average DAR at day 30", "setting": "[1]; in vitro, HIC", "result": 3.484}, {"measurement": "RON-β chain detected", "setting": "RON-β chain (mature RON)", "result": "Less than 20%"}, {"measurement": "RON endocytosis by immunofluorescence", "setting": "RON", "result": "intracellular localization of internalized RON occurred at 37 °C"}, {"measurement": "average body weight", "setting": "[2]; [4]", "result": "comparable to that of control mice with no differences"}, {"measurement": "mouse behavior", "setting": "[2]; [4]", "result": "behaved normally"}, {"measurement": "behavior and body weight", "setting": "[2]; single dose 20 mg/kg, tumor-bearing nude mice", "result": "No changes in behavior or body weight were observed"}, {"measurement": "inhibition of PDAC xenograft tumor growth", "setting": "[3]", "result": "highly effective in inhibiting PDAC cell-mediated tumor growth; also recorded: highly effective in inhibition of xenograft PDAC growth"}]}]}
